# *1 amine or outer side, *2 acyl side, *3 side chain or, on linkers, in order; H or OH if unused. Where no end group is shown, it is not given here. [ ]: non-standard residue; d: D form. Tyr(Me) = O-methyl-tyrosine, COc1ccc(C[C@H](N[*:1])C(=O)[*:2])cc1; Trp(1-Me) = Cn1cc(C[C@H](N)C(=O)O)c2ccccc21; Phe(4-Me) = Cc1ccc(C[C@H](N)C(=O)O)cc1; Lys(Me2) = CN(C)CCCC[C@H](N)C(=O)O; Cit = NC(=O)NCCC[C@H](N)C(=O)O
# B1: HYMetFMetKMet2FMetD (peptide)
# peptide: H[Tyr(Me)][Phe(4-Me)][Lys(Me2)][Phe(4-Me)]D-{Toyopearl AF‑Amino‑650M resin}
# notes: Variant of HYFKFD on Toyopearl resin, used as a negative control; also called HYMetFMetK(Met)2FMetD-Toyopearl
# B2: HWRGWV (peptide)
# peptide: HWRGWV-{Toyopearl AF‑Amino‑650M resin}
# modifications: not fully specified
# notes: Synthetic hexapeptide made directly on Toyopearl AF-Amino-650M resin after a first Fmoc-Ala-OH coupling, about 0.12 meq/g; also called HWRGWV-Toyopearl; original peptide ligand
# B3: HFRRHL (peptide)
# peptide: HFRRHL-{Toyopearl AF‑Amino‑650M resin}
# notes: Synthetic hexapeptide on Toyopearl resin; also called HFRRHL-Toyopearl
# B4: HYFKFD (peptide)
# peptide: HYFKFD-{Toyopearl AF‑Amino‑650M resin}
# notes: Synthetic hexapeptide on Toyopearl resin; also called HYFKFD-Toyopearl
# B5: HWMetCitGWMetV (peptide)
# peptide: H[Trp(1-Me)][Cit]G[Trp(1-Me)]V-{Toyopearl AF‑Amino‑650M resin}
# notes: Variant of HWRGWV on Toyopearl resin; also called HWMetCitGWMetV-Toyopearl
# B6: HFMetCitCitHL (peptide)
# peptide: H[Phe(4-Me)][Cit][Cit]HL-{Toyopearl AF‑Amino‑650M resin}
# notes: Variant of HFRRHL on Toyopearl resin; also called HFMetCitCitHL-Toyopearl
# B7: Ac-HWMetCitGWMetV (peptide)
# peptide: Ac-H[Trp(1-Me)][Cit]G[Trp(1-Me)]V-{Toyopearl AF‑Amino‑650M resin}
# notes: Acetylated HWMetCitGWMetV on Toyopearl resin; also called Ac-HWMetCitGWMetV-Toyopearl
# Target: T1, Human polyclonal immunoglobulin G (IgG) (human)
# T1 construct: also called hIgG; IVIG
# Test: affinity chromatography, peptide on Toyopearl resin, pure human IgG load; yield = IgG eluted/IgG loaded, by Protein G chromatography
row,IgG yield [%],Binder
1,42,B1
2,95,B2
3,93,B3
4,78,B4
5,90,B5
6,90,B6

# Target: T1, Human polyclonal immunoglobulin G (IgG)
# Test: affinity chromatography, peptide resin, 10 mg/mL hIgG in PBS; 3rd run, after alpha-chymotrypsin and then trypsin
row,IgG yield [%],Binder
1,53,B1
2,36,B2
3,54,B3
4,71,B4
5,90,B5
6,91,B6

# Target: T1, Human polyclonal immunoglobulin G (IgG)
# Test: affinity chromatography of Cohn fraction II+III of human plasma on peptide resin; binding PBS + 0.25M NaCl, elution acetate pH 5.0; yield by Protein G chromatography
row,IgG yield [%],Binder
1,48,B1
2,85,B2
3,91,B3
4,54,B4
5,91,B5
6,89,B6

# Target: T2, albumin (human, UniProt P02768 25-609)
# T2 construct: Impurity in the Cohn fraction II+III feed, seen on SDS-PAGE of the eluted fractions
# Test: SDS-PAGE of fractions eluted from peptide resin loaded with Cohn fraction II+III
# T2 sequence (P02768 25-609 limits assumed): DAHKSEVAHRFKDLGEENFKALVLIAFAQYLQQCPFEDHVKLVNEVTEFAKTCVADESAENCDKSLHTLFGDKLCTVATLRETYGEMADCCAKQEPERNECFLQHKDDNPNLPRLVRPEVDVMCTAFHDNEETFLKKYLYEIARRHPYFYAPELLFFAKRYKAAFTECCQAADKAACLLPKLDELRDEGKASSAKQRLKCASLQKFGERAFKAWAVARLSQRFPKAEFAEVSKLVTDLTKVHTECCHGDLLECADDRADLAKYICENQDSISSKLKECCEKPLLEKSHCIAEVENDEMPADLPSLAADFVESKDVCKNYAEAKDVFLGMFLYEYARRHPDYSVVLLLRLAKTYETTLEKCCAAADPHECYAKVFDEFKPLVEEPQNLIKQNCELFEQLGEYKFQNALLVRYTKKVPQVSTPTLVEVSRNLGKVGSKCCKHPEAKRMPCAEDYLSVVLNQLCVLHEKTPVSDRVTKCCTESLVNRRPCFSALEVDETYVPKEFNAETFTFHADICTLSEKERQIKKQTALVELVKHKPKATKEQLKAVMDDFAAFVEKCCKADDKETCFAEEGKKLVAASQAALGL
row,binding result,Binder
1,binds,B1
2,binds,B2
3,binds,B3
4,binds,B4
5,binds,B5
6,binds,B6

# Target: T1, Human polyclonal immunoglobulin G (IgG)
# Test: affinity chromatography of Cohn fraction II+III on peptide resin; binding buffer PBS + 0.25M NaCl
row,IgG yield [%],Binder
1,94,B7
2,85,B2
3,91,B5

# Target: T1, Human polyclonal immunoglobulin G (IgG)
# Test: affinity chromatography, peptide resin, 10 mg/mL hIgG in PBS; 1st run, before any enzyme
row,IgG yield [%],Binder
1,52,B1
2,95,B2
3,93,B3
4,78,B4
5,90,B5
6,90,B6

# Target: T2, albumin
# Test: SDS-PAGE of fractions from peptide resin loaded with Cohn fraction II+III at different NaCl
row,binding result,Binder
1,binds,B7

# Target: T1, Human polyclonal immunoglobulin G (IgG)
# Test: affinity chromatography of Cohn fraction II+III on peptide resin; binding buffer PBS + 0M NaCl
row,IgG yield [%],Binder
1,91,B7
2,90,B2
3,89,B5

# Target: T1, Human polyclonal immunoglobulin G (IgG)
# Test: affinity chromatography, peptide resin, 10 mg/mL hIgG in PBS; 2nd run, after resin contacted with alpha-chymotrypsin
row,IgG yield [%],Binder
1,49,B1
2,72,B2
3,78,B3
4,76,B4
5,91,B5
6,92,B6

# Target: T1, Human polyclonal immunoglobulin G (IgG)
# Test: affinity chromatography of Cohn fraction II+III on peptide resin; binding buffer PBS + 0.13M NaCl
row,IgG yield [%],Binder
1,93,B7
2,85,B2
3,90,B5

# Source: patent publication US10266566 (NORTH CAROLINA STATE UNIVERSITY, dated 2019)
